The test deals with N-peptide (RABV N protein, residues 363-414, [change]) (RABV).

Broadly, the Kd is the free concentration of one partner at which half of the binding sites on the other are occupied at equilibrium, for simple one-to-one binding. Read a high Kd as a looser complex.

As for “NiP-CTD (C-terminal domain of the P protein of rabies virus strain Nishigahara, residues 186-297, Cy (from UniProt Q9IPJ8 186-296)”, the Kd was 88 µM.
